Experiment [1] addresses T1, GAD65 peptide on HLA-DRA*01:01 / HLA-DRB1*04:01 (human).
T1 peptide: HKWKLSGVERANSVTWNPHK
Nature of the experiment: proliferation.

In experiment [2] the target is T2, influenza M protein (Influenza A MP54; also given MP74) peptide on HLA-DRA*01:01 / HLA-DRB1*04:01 (human).
T2 peptide: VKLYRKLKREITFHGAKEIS
In words: proliferation.

B1: Clone_566 (TCR)
alpha TRAV29DV5 TRAJ45 CDR3: CAASRYSGGGADGLTF
beta TRBV12-4 TRBJ1-1 CDR3: CASSVQGGNTEAFF
In the case of B1, the binding result in experiment [1] and in experiment [2] was “recognises” in each case.

B2: P196-1 (TCR)
alpha TRAV29DV5 TRAJ45 CDR3: CAASRYSGGGADGLTF
beta TRBV12-4 TRBJ1-1 CDR3: CASSLQGGNTEAFF
Consider B2, for which the binding result in experiment [1] and in experiment [2] was “recognises” in each case.

B3: Clone_81 (TCR)
alpha TRAV29DV5 TRAJ45 CDR3: CAASRYSGGGADGLTF
beta TRBV12-4 TRBJ1-1 CDR3: CASSPQGGNTEAFF
With B3, the binding result in experiment [1] and in experiment [2] was “recognises” throughout.

The values are drawn from publication PMC10602137 (2023).
